Measurements from paper PMC5149402 (Structure (London, England : 1993), 2016).
Where a chain is given by its changes, count along the chain named.

B1: rat Cerebellin-1 C34,38S double mutant (trimer) (natural protein, UniProt P63182 22-193, looked up)
chain: QNETEPIVLEGKSLVVSDSNPTSDPTGTALGISVRSGSAKVAFSAIRSTNHEPSEMSNRTMIIYFDQVLVNIGNNFDSERSTFIAPRKGIYSFNFHVVKVYNRQTIQVSLMLNGWPVISAFAGDQDVTREAASNGVLIQMEKGDRAYLKLERGNLMGGWKYSTFSGFLVFPL
B2: full-length rat Cerebellin-1, wild type (hexamer) (natural protein, UniProt P63182 22-193, looked up)
chain: B1 chain with S13C, S17C
B3: rat Neurexin-1α (+SS4), domains LNS2 to LNS6 (domain or fragment)
chain: not shown

How the values were obtained:
[1] = biological target: the molecule itself; test: SEC
[2] = biological target: rat Neurexin-1β (+SS4), residues S48 to P292 (β-unique N-terminal region plus LNS6) (rat, UniProt Q63373 48-292); test: ITC
[3] = biological target: the molecule itself; test: non-reducing SDS-PAGE
[4] = biological target: B2; test: ITC

Chain of rat Neurexin-1β (+SS4), residues S48 to P292 (β-unique N-terminal region plus LNS6) (Q63373 48-292): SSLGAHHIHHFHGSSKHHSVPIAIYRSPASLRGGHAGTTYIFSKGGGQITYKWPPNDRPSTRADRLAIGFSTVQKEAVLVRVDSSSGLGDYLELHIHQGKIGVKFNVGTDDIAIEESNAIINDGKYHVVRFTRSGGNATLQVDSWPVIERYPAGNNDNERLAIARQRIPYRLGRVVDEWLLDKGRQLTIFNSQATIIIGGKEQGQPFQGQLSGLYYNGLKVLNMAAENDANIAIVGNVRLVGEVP

B1
stoichiometry N [1]: 3

B2
Kd [2]: 47 nM | stoichiometry N [3]: 2

B3
Kd [4]: 35 nM | stoichiometry N [4]: 0.912 ± 0.045
